Results: the nanobody polyreactivity screen of Harvey et al. (2022)

test: yeast display, Sf9 membrane polyspecificity reagent, FACS + sequencing; frameworks hold sequencing errors
Summary of the method: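 A synthetic nanobody library was expressed on Saccharomyces cerevisiae BJ5465 by galactose induction for 36–48 hours. The library was stained for 1 hour at 4 °C with 10% biotinylated, detergent-solubilized Sf9 membrane reagent and enriched with streptavidin microbeads before FACS. Low and high (top ~1%) gates were set on anti-HA fluorescence for expression and streptavidin fluorescence for reagent binding, and each polyreactivity label reflects the gate of origin.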

Row | Sequence | polyreactivity (PSR sort gate)
1 | QVQLVESGGGLVQAGGSLRLICAASGLTFRVYTMGWYRQAPGQERELVASISRSGASTYYADSVKGRFTISRDNAKNTVYLQMNSLKPEDTAVYYCNAVTSWPRRDFDYWGQGTQVTVSS | high polyreactivity
2 | QVQLVESGGGLVQAGGSLRLICAASGLTSGLNAMGWYRPAPGKERELVATIRTNGGSTYYADSVKGRFTISRDNAKNNVYLQMNSLKPEDTAVYYCAADDKGGFAVEYDYWGQGTQVTVSS | low polyreactivity
3 | QVQLVESGGGLVQAGGSLRLICAASGNIFTYYAMGWYRQAPWKERELVAAISSGDSTNYADSVKGRFTISRDNAKNTVYLQMNSLKPEDTAVYYCNVDRVPSRRYYAQKGYFRYYYWGQGTQVTVSS | high polyreactivity
4 | QVQLVESGGGLVQAGGSLRLICAASGRIFFVNAMGWYRQAPGKERELVAAISRSAGRTYYADSVKGRFTISRDNAKNTVYLQMNSLKPEDTAVYYCATEGRTDYNREMEYWGQGTQVTVSS | low polyreactivity
5 | QVQLVESGGGLVQAGGSLRLICAASGRIFGFNAMGWYRQAPGKERELVAAISGRSGRTYYADSVKGRFTISRDNAKITVYLQMNSLKPEDTAVYYCNTVGYRGPSWYDYWGQGTQVTVSS | high polyreactivity
6 | QVQLVESGGGLVQAGGSLRLICAASGRIFGKNDMGWYREAPRKEREFVATIDWSGGSTYYADSVKGRFTISRDNAKNTVDLQMNSLIPEDNAVYYCAARQYWTTDLPFQRYYYWGQGTQVTVSS | low polyreactivity
7 | QVQLVESGGGLVQAGGSLRLICAASGRIFGRYTMGWYRQAPGKETELVAGITYSGGSTYYADSVKGRFTISRDNAKNTVYLQMNSLKPEDTAVYYCAARWRGSGGFDYWGQGTQVTVSS | high polyreactivity
8 | QVQLVESGGGLVQAGGSLRLICAASGRIFGYNAMGWYRQEPGKERELVAAISSGGSTYYADSVKGRFTISRDHAKNTVYLQMNSLKPEDTAVYYCAAEDYPPYTTEYDYWGQGTQVTVSS | low polyreactivity
9 | QVQLVESGGGLVQAGGSLRLICAASGRIFGYYAMGWYRQAPGKERELVAAISRAGSTYYADSVKGRFTISRDNAKNTVSLQMNSLKPEDTAVYYCAAVRSVQRHYTEMYYWGQVTQVTVSS | high polyreactivity
10 | QVQLVESGGGLVQAGGSLRLICAASGRIFGYYAMGWYRQAPGKERELVATITFGGGSSYYADSVKGRFTISRDNAKNTVNLQMNSLKPEDTAVYYCAAVSGYLGIYGDEYSWGQGTQVTVSS | low polyreactivity
11 | QVQLVESGGGLVQAGGSLRLICAASGRIFGYYTMGRYRQAPGKERELVADNNRDGSTYADSVKGRFTISRDNAKNSVYIQMNSLKPEDTAVYYCIAQYDSAYGLGFFIGYFSQYDYWGQGTQVTVSS | low polyreactivity
12 | QVQLVESGGGLVQAGGSLRLICAASGRIFHGNAMGWYRQAPGKERELVAAISRRGGSTYYADSVKGRFTISRDNAKNTVYLQMNSLKPEDTAVYYCASVYYNGIRYGYWGQGTQVTVSS | high polyreactivity
13 | QVQLVESGGGLVQAGGSLRLICAASGRIFKINAMGWYRQAPGKERELVAGISGSGSDTYYADSVKGSFTISRDNAKYTVYLQMNSLKPEDTAVYYCAAVAYDWALFYYWGQGTQVTVSS | low polyreactivity
14 | QVQLVESGGGLVQAGGSLRLICAASGRIFLNSTMGSYRQEPGKERELVADITWRGGSTYYADSVKGRFTISRDNAKNTVYLQMNSLKPEDTAVYYWNAVSVSSKRSDYWVQGTQVTVSS | low polyreactivity
15 | QVQLVESGGGLVQAGGSLRLICAASGRIFRYNALGWYRQAPGKERELVATISGTSRTKYADSVKGRFTISRDNAKHTVYLQMNSLKPEDTAVYYCAARRYGWGRAQSSASYDHWGQGTQVTVSS | high polyreactivity
16 | QVQLVESGGGLVQAGGSLRLICAASGRIFRYYAMGWYRQAPGKERELVAAISYSGGSTYYADSVKGRFTISRDNEKNTVYLQMNILKPEDTAVYYCNAGSWKSYYSTVRYLTYSMYYWGQGTQVTVSS | high polyreactivity
17 | QVQLVESGGGLVQAGGSLRLICAASGRIFSGNTMGWYRQAPGKERELVAAISKSGGRTYYADSVKGRFTISRDNAKYTFYLQMNSLKPEDTAVYYCNADYRSHYLYDYWGQGTQVTVSS | low polyreactivity
18 | QVQLVESGGGLVQAGGSLRLICAASGRIFWQYAMGWYRQAPGKERELVAAISRSGGSTYYADSVKGRFTISRDNAKNTVYLQMNSLKPEDTAVYYCAARKASGVPGSAGRPEYYYWGQGTQVTVSS | high polyreactivity
19 | QVQLVESGGGLVQAGGSLRLICAASGRIFWSNAMRWSRQAPGKVSELVAAISSGGSTYYADSVKGRFTISRDNAKNTVYLQMNRLKPEDTAVYYCATRGIQRGFSRWGGLDYWGQGTLVTVSS | low polyreactivity
20 | QVQLVESGGGLVQAGGSLRLICAASGRIFYFYAMGWYRQAPGKERELVAAISTSGGSTYYADSVKGRFTISRDNAKNTVYLQMNSLKPEDTAVYYCAARFRYYGSEYDYWGQGTQVTVSS | low polyreactivity
21 | QVQLVESGGGLVQAGGSLRLICAASGRIFYGYAMGWYRQAPGKEREFVAAITVSAGSTYYADSVKGRFTISRDYAKNTVYLQMNSLKPEDTAVYYCAAKRYVYPSYRFDYWGQGTQVTVSS | low polyreactivity
22 | QVQLVESGGGLVQAGGSLRLICAASGRIFYNNAMGWYRQARGKERELVAGISRSSGRTYYADSVTGRFTISRDNAKNTGYLQMNSLKPVDTAVYYCAADWHYRSTARRMGYWGQGTQVTVSS | high polyreactivity

Row | Sequence | polyreactivity (PSR sort gate)
23 | QVQLVESGGGLVQAGGSLRLICAASGRIFYYYTMGWYRQAPGKERELVDTIRSGGSTYYADSVKGRFTISRDNAKNTVYLQMNSLKPEDTAVYYCAAAYRTGRGYGFDYWGQGTQVTVSS | high polyreactivity
24 | QVQLVESGGGLVQAGGSLRLICAASGRISKRYTMGWYRQAPGKERELVAAINSSTSKSYADSVKGRFTISRDNAKNTVYLQMNSLKPEDTAVYYCNARYNYSYDYNYWGQGTQVTVSS | low polyreactivity
25 | QVQLVESGGGLVQAGGSLRLICAASGRPSVLMLMGLYRQEPGKERELVAAIDDSTDTTYYADSVKGRFTISRDNAKNTVYLQMNSLKPDVTAGYYCADEEGYVKFSGSWSYGYDYWGQGTQVTVSS | high polyreactivity
26 | QVQLVESGGGLVQAGGSLRLICAASGRSFIGNAMGWYSQAPGKDREFDAAISRRGGSTYYADSVKGRFTISRDNEKNTVYLQMNSLKPEDTAVYYCAAGQTTTGILTYYYWGQGTQVTGSS | high polyreactivity
27 | QVQLVESGGGLVQAGGSLRLICAASGRSFQYYVMGWYSQAPGKEWELVAAMNRRGTSTYYADSVKGRFTISRDNAKNTVYLQMNSLKPEDTAVYYCAAVDRDYARTTTYDYWGQGTQVSVSS | high polyreactivity
28 | QVQLVESGGGLVQAGGSLRLICAASGRSFTSNAMGWYRQAAGKEWELVAAINFRGDSTYYADSVKGRFTISRDNAKNTVYLQMNSLKREDTAVYYCAAVGGRSSYRLDYWGQGTQVTVSS | low polyreactivity
29 | QVQLVESGGGLVQAGGSLRLICAASGRTCWKYVMGWYRQAPGKERDLVAVISSDGITNYADSVKGRFTISRDNAKNTVYLQMNSLKPEDTAVYYCNAGPDDYVGYWGKYDYWGQGTQVTVSS | low polyreactivity
30 | QVQLVESGGGLVQAGGSLRLICAASGRTFAIYAMGWYRQAPGKEREIVAAISWSGGDTYYADSVKGRFTISRDNEKNTVYLQMNSLKPEDTAVYYCAADRYDYSYFGYGAQDYDYWGQGTQLTVSS | low polyreactivity
31 | QVQLVESGGGLVQAGGSLRLICAASGRTFAYYAMGWYRQAPGKERELVATITWNGGSTYYADSVKGRFTISRDNAKNTVYLQMNSLKPEDTAVYYCAKSVGWWSPPLGDYWGQGTQVTVSS | low polyreactivity
32 | QVQLVESGGGLVQAGGSLRLICAASGRTFDNYAMGWYRQAPGKEREFVAAITTGVGSTYADSVKGRFTISRDNAKNTVYLQMNSLKPEDTAVYYCAGDSYWLFDAYDYWGQGTKVTVSS | low polyreactivity
33 | QVQLVESGGGLVQAGGSLRLICAASGRTFGGNAMGWYRQAPGKEWDLVAAISYSDGSKYYADSVKGRFTISRDNANNSVYLQMNSLKPEDTAVYYCAAARHVRTDYLDYDYWGQGTQVTVSS | low polyreactivity
34 | QVQLVESGGGLVQAGGSLRLICAASGRTFGRYAMGWYRQAPGKERELVADIDYGGGSTYYADSEKGRFTISRDNAKNTVYLQMNSLKPEDTAVYYCNARRDIGWGYHMDYWGQGTQVTVSS | high polyreactivity
35 | QVQLVESGGGLVQAGGSLRLICAASGRTFGSNAMGWYTQAPGKERELVAAIRERGGSTYADSVKGRFTISRDNAKNTVYLQMNCLKQEDTAVYYCNAVYVRSSLYYTGWSTFYYWGQGTQVTVSS | low polyreactivity
36 | QVQLVESGGGLVQAGGSLRLICAASGRTFNPYAMGWYRQAPGKERELVAAISSGGNTNYADSVKGRFTISRDNAKNSVYLQMNSLKPEDTAVYYCATGLRWYHQLTGGYWGQGTQVTVSS | high polyreactivity
37 | QVQLVESGGGLVQAGGSLRLICAASGRTFRDYAMGWYRQAPGKEWELVAVISRRGSSTYYADSVKGRFTISRDNAKNTVYLQMNSLKPEDTAVYYCARVPTTWRYAYGYWGQGTQVTVSS | high polyreactivity
38 | QVQLVESGGGLVQAGGSLRLICAASGRTFRGYAMGWYRQAPGNERELVAAITKSGGSTYYADSVKGRFTISRDNEKNTVYFQMNSLKPEDTAVYYCAKLRSSRDYDYWGQGTQVTVSS | high polyreactivity
39 | QVQLVESGGGLVQAGGSLRLICAASGRTFRLYAMGWYRQAPGKERELVAAITRGGRTNYADSVKGRFTISRDNAKNTVYLQMNSLKPEDTAVYYCAARYVERHTDYYYWGQGTQVTVSS | low polyreactivity
40 | QVQLVESGGGLVQAGGSLRLICAASGRTFRSNDMGWYRQAPGKERELVAANSLGTGTTYYADSVKGRFTISRDNAKNTVYLQMNSLKPEDTAVYYCHTDYRPIDTEYTSGYDYWGQGTQVTVSS | low polyreactivity
41 | QVQLVESGGGLVQAGGSLRLICAASGRTFRYYAMGWYRQAPGKERELVAAITTGSSTYYADSVKGRFTISRDNAKNTVYLQMNSLKPEDTAVYYCNVFQGTRYGYWGQGTQVTVSS | low polyreactivity
42 | QVQLVESGGGLVQAGGSLRLICAASGRTFSSYAMGWYRQAPGKERELVAALSRRGGSTYYADSVKGRFTISRDNAKNTVYLQMNSLNPEDTAVYYCAADVYKQYGYYYWGQGTQVTVSS | high polyreactivity
43 | QVQLVESGGGLVQAGGSLRLICAASGRTFSVYAMGWYRQAPGKERELVAAISWNGGNTYYADSVKGRFTISRDNAKNTVYLQMNSLKPEDTAVYYCAAERFLARRYYYWGQGTQVTVSS | low polyreactivity
